Experimental data as given in the supplement of paper PMC9732359.
± gives the uncertainty stated by the source.

Assay: protein stability index of a GFP-peptide fusion (yeast GPS) (PSI 1-4); higher = more stable; sorted into four equal gates, so the index is relative within each strain
Procedure, shortened: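 Mid-log yeast cultures in leucine-free medium, carrying a pooled plasmid library, were sorted into four equal gates by their GFP/Cherry fluorescence ratio. Each plasmid expressed Cherry along with GFP fused upstream of a tiled 17-residue yeast protein peptide. Plasmids recovered from each gate were PCR-amplified and Illumina-sequenced, with reads assigned to strains by barcodes. The protein stability index was obtained by summing each gate's read frequency weighted by its gate number.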

Sequence | protein stability index (doa10∆) | protein stability index (pdr5∆) | protein stability index (san1∆) | protein stability index (ubr1∆)
HTSPHQPSDVKPTSHKQ [SIR4] | 2.76 ± 0.057 | 3.08 ± 0.059 | 2.9 ± 0.047 | 2.52 ± 0.044
NTSSLQSFQNPFTASQS [YIL149C/MLP2] | 2.36 ± 0.05 | 2.02 ± 0.038 | 2.45 ± 0.048 | 2.36 ± 0.034
DKPYLLRIVTHLAICLD [YDL116W/NUP84] | 1.33 ± 0.078 | 1.28 ± 0.08 | 1.32 ± 0.13 | 1.58 ± 0.058
LRSRLQQQQQQQQQTSP [SNF5] | 2.58 ± 0.057 | 2.95 ± 0.058 | 2.76 ± 0.05 | 2.78 ± 0.049
EYLKRVSVPVSGQKTNR [SIR3] | 2.54 ± 0.1 | 2.52 ± 0.087 | 3.06 ± 0.13 | 2.83 ± 0.16
RGRGRGRGRGRGRPPKA [SNF2] | 3.22 ± 0.075 | 3.2 ± 0.066 | 3.37 ± 0.041 | 3.27 ± 0.06
KRSMDAEQLGHASKRHK [RPP1] | 2.54 ± 0.058 | 2.79 ± 0.056 | 2.68 ± 0.056 | 2.61 ± 0.054
SAPAPAAAAPAPVAAAA [FAS2] | 3.24 ± 0.24 | 3.21 ± 0.28 | 2.49 ± 0.13 | 3.28 ± 0.29
TRSQFCLNTQRGDSTET [RRI1] | 3.07 ± 0.094 | 3.32 ± 0.094 | 3.22 ± 0.063 | 3 ± 0.076
PIIATYGNRAEQFLETD [SRP68] | 2.09 ± 0.09 | 2.48 ± 0.063 | 2.26 ± 0.14 | 2.72 ± 0.084
NKVSYYGNPTSKESWRY [RTT102] | 3.23 ± 0.11 | 3.19 ± 0.13 | 2.84 ± 0.17 | 3.42 ± 0.098
VQGAAPWDTSLEVGRRF [MCD1] | 3.48 ± 0.13 | 3.39 ± 0.13 | 3.28 ± 0.088 | 3.43 ± 0.16
SQYFKFKNDFNSFYYTS [RPN9] | 2.1 ± 0.075 | 2.33 ± 0.06 | 2.51 ± 0.084 | 2.58 ± 0.056
YRNFMVNSYRLNPNEYF [SWI3] | 1.69 ± 0.12 | 1.45 ± 0.058 | 2.3 ± 0.1 | 2.46 ± 0.075
RSIMKNRSVVYFKLDLT [RRI2] |  | 1.58 ± 0.22 |  | 
STANPNIKLLNNRMGSY [POP1] | 3.01 ± 0.086 | 3.16 ± 0.083 | 2.56 ± 0.088 | 3.04 ± 0.052
EILRIHSRKMNLTRGIN [RPT6] | 2.85 ± 0.06 | 2.99 ± 0.071 | 2.29 ± 0.075 | 2.52 ± 0.06
AYLLLNAAGNTPDATKI [RPP2A] | 2.2 ± 0.038 | 2.17 ± 0.036 | 2.17 ± 0.051 | 2.49 ± 0.039
GIFLHGKIPTLKISLIQ [PRP8] | 2.26 ± 0.042 | 2.03 ± 0.035 | 1.79 ± 0.053 | 1.78 ± 0.029
CDVFWVQKDTAIIRLHP [POP1] | 2.29 ± 0.079 | 2.62 ± 0.097 | 2.5 ± 0.095 | 2.58 ± 0.079
AKTFGASVRIFLYPSNI [RPL33A] | 2.38 ± 0.057 | 2.65 ± 0.056 | 2.5 ± 0.066 | 2.59 ± 0.054
NAQDIDHFLSMCQNPMQ [FAS1] | 3.51 ± 0.23 | 2.84 ± 0.17 |  | 
FVKNIRMLSFEDISKAT [RPN9] | 2.66 ± 0.063 | 1.86 ± 0.076 | 1.91 ± 0.078 | 1.93 ± 0.053
GKIVSQRGKWNLKYLDN [RGR1] | 2.28 ± 0.074 | 2.64 ± 0.068 | 2.37 ± 0.091 | 2.17 ± 0.06
LAVLALVIVKKGEQELE [RPS6A] | 1.61 ± 0.038 | 1.56 ± 0.045 | 2 ± 0.072 | 2.54 ± 0.05
LRNKIAGYTTHLMKRIQ [RPS17A] | 2.44 ± 0.12 | 3.19 ± 0.13 | 2.31 ± 0.12 | 2.99 ± 0.076
LQVSEKDLFELERYYKE [ARP7] | 3.14 ± 0.085 | 3.23 ± 0.077 | 3.48 ± 0.14 | 3.46 ± 0.065
